Results from patent publication US20250034275A1 (CHIA TAI TIANQING PHARMACEUTICAL GROUP, published 2025).
Read-outs that look alike come from different tables or passages of the source. One block for each molecule: values may come before it.

Columns and labels:
[1] = molecular target: human Trop-2 (on the surface of human cell lines) (human) (UniProt P09758); test: flow cytometry, HCC1806 cells, isotype control at 3 ug/mL (background)
[2] = molecular target: human Trop-2 (on the surface of human cell lines) (human) (UniProt P09758); test: flow cytometry, NCI-H322 cells, isotype control at 3 ug/mL (background)
[3] = molecular target: human Trop-2 (on the surface of human cell lines) (human) (UniProt P09758); test: flow cytometry, HUVEC cells, isotype control at 3 ug/mL (background)
[4] = molecular target: human Trop-2 (on the surface of human cell lines) (human) (UniProt P09758); test: flow cytometry, HCC38 cells, isotype control at 3 ug/mL (background)
[5] = molecular target: human Trop-2 (on the surface of human cell lines) (human) (UniProt P09758); test: flow cytometry, PC-3 cells, isotype control at 3 ug/mL (background)
[6] = molecular target: human Trop-2 (on the surface of human cell lines) (human) (UniProt P09758); test: flow cytometry, Capan-1 cells, isotype control at 3 ug/mL (background)
[7] = molecular target: human Trop-2 (on the surface of human cell lines) (human) (UniProt P09758); test: flow cytometry, OVCAR-3 cells, isotype control at 3 ug/mL (background)
[8] = molecular target: human Trop-2 (on the surface of human cell lines) (human) (UniProt P09758); test: cell-based or functional assay
human Trop-2-His [9] = molecular target: T1, human Trop-2-His (human, UniProt P09758 27-274, limits assumed); test: SPR (Biacore 8K), antibody captured, Trop-2-His as analyte
T1 construct: by analogy with the macaque construct it is probably the extracellular domain with a His tag; also called Trop-2-His protein
T1 sequence: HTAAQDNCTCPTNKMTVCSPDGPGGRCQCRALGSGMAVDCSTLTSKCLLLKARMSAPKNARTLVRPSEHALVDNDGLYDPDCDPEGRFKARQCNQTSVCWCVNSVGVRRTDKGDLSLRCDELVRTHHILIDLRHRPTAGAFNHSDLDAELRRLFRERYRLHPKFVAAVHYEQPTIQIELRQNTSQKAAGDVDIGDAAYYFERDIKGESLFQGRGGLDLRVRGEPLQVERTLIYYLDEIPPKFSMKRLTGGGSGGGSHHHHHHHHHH
Procedure, shortened: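 Antibody captured on anti-human IgG-coated CM5 chip; human Trop-2-His flowed as analyte with real-time association/dissociation recording, 3M MgCl₂ regeneration. Double-subtracted curves fit to Langmuir 1:1 model giving ka, kd and KD.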

[10] = molecular target: human Trop-2 (on the surface of human cell lines) (human) (UniProt P09758); test: flow cytometry, HCC1806 cells
[11] = molecular target: Macaque Trop-2-His (macaque); test: ELISA, plate-coated macaque Trop-2-His
[12] = molecular target: human Trop-2 (on the surface of human cell lines) (human) (UniProt P09758); test: flow cytometry, HUVEC cells, antibody at 3 ug/mL
[13] = molecular target: human Trop-2 (on the surface of human cell lines) (human) (UniProt P09758); test: flow cytometry, HCC38 cells
[14] = molecular target: human Trop-2 (on the surface of human cell lines) (human) (UniProt P09758); test: flow cytometry, OVCAR-3 cells
[15] = molecular target: human Trop-2 (on the surface of human cell lines) (human) (UniProt P09758); test: flow cytometry, HCC38 cells, antibody at 3 ug/mL
[16] = molecular target: Macaque Trop-2-His (macaque); test: ELISA, plate-coated macaque Trop-2-His; remark: listed apart in the source
[17] = molecular target: human Trop-2 (on the surface of human cell lines) (human) (UniProt P09758); test: flow cytometry, Capan-1 cells, antibody at 3 ug/mL
[18] = molecular target: human Trop-2 (on the surface of human cell lines) (human) (UniProt P09758); test: flow cytometry, HCC1806 cells, antibody at 3 ug/mL
human Trop-2-His [19] = molecular target: T1, human Trop-2-His; test: ELISA, plate-coated human Trop-2-His
[20] = molecular target: human Trop-2 (on the surface of human cell lines) (human) (UniProt P09758); test: flow cytometry, OVCAR-3 cells, antibody at 3 ug/mL
[21] = molecular target: human Trop-2 (on the surface of human cell lines) (human) (UniProt P09758); test: flow cytometry, NCI-H322 cells, antibody at 3 ug/mL
[22] = molecular target: human Trop-2 (on the surface of human cell lines) (human) (UniProt P09758); test: flow cytometry, HCC38 cells; remark: listed apart in the source
[23] = molecular target: human Trop-2 (on the surface of human cell lines) (human) (UniProt P09758); test: flow cytometry, HCC1806 cells; remark: listed apart in the source
[24] = molecular target: human Trop-2 (on the surface of human cell lines) (human) (UniProt P09758); test: flow cytometry, OVCAR-3 cells; remark: listed apart in the source
[25] = molecular target: human Trop-2 (on the surface of human cell lines) (human) (UniProt P09758); test: flow cytometry, HCC1806 cells; remark: listed apart in the source
[26] = molecular target: human Trop-2 (on the surface of human cell lines) (human) (UniProt P09758); test: flow cytometry, PC-3 cells, antibody at 3 ug/mL
[27] = molecular target: human Trop-2 (on the surface of human cell lines) (human) (UniProt P09758); test: flow cytometry, HCC38 cells; remark: listed apart in the source
[28] = molecular target: Macaque Trop-2-His (macaque); test: ELISA, plate-coated macaque Trop-2-His; remark: listed apart in the source

MFI [1]: 16200 | MFI [2]: 21300 | MFI [3]: 20500 | MFI [4]: 32400 | MFI [5]: 8920 | MFI [6]: 65600 | MFI [7]: 11800
Molecule: human IgG1 control antibody

ADCC reporter (Jurkat-CD16a v158-NFAT-luciferase), target cell H322, EC50 [8]: 270 pM | ADCC reporter (Jurkat-CD16a v158-NFAT-luciferase), target cell HCC1806, EC50 [8]: 460 pM | Kd (human Trop-2-His [9]): 12500 pM | koff (human Trop-2-His [9]): 0.00239 s⁻¹ | kon (human Trop-2-His [9]): 191000 M⁻¹ s⁻¹ | EC50 [10]: 1440 pM | EC50 [11]: 63 pM | MFI [12]: 125000 | Positive rate (%) [12]: 22.9% | Ratio (MFI of TINA to MFI of the IgG1 control) [12]: 6.1 | EC50 [13]: 1210 pM | EC50 [14]: 1280 pM | MFI [15]: 3.85e+06 | Positive rate (%) [15]: 99.3% | Ratio (MFI of TINA to MFI of the IgG1 control) [15]: 119 | EC50 [16]: 106 pM | MFI [17]: 1.21e+06 | Positive rate (%) [17]: 98.4% | Ratio (MFI of TINA to MFI of the IgG1 control) [17]: 18.4 | MFI [18]: 1.66e+06 | Positive rate (%) [18]: 99.9% | Ratio (MFI of TINA to MFI of the IgG1 control) [18]: 102 | EC50 (human Trop-2-His [19]): 83 pM | EC50 (human Trop-2-His [19]; record 2): 166 pM | MFI [20]: 182000 | Positive rate (%) [20]: 99% | Ratio (MFI of TINA to MFI of the IgG1 control) [20]: 15.4 | MFI [21]: 2.83e+06 | Positive rate (%) [21]: 100% | Ratio (MFI of TINA to MFI of the IgG1 control) [21]: 133 | EC50 [22]: 790 pM | EC50 [23]: 840 pM | EC50 [24]: 1290 pM | EC50 [25]: 730 pM | MFI [26]: 68500 | Positive rate (%) [26]: 69.1% | Ratio (MFI of TINA to MFI of the IgG1 control) [26]: 7.7 | EC50 [27]: 1040 pM | EC50 [28]: 46 pM
B1: TINA (antibody, INN chains, looked up, V domains shown)
VH: QVQLVQSGAEVKKPGASVKVSCKASGYTFTTAGMQWVRQAPGQGLEWMGWINTHSGVPKYAEDFKGRVTISADTSTSTAYLQLSSLKSEDTAVYYCARSGFGSSYWYFDVWGQGTLVTVSS
VL: DIQMTQSPSSLSASVGDRVTITCKASQDVSTAVAWYQQKPGKAPKLLIYSASYRYTGVPSRFSGSGSGTDFTLTISSLQPEDFAVYYCQQHYITPLTFGQGTKLEIK
ADCC, PBMC killing (LDH), H322, EC50 [8]: 20 pM | ADCC, PBMC killing (LDH), H322, Maximum killing (%) [8]: 49.8% | ADCC, PBMC killing (LDH), HCC1806, EC50 [8]: 70 pM | ADCC, PBMC killing (LDH), HCC1806, Maximum killing (%) [8]: 38.5%
